For orientation: EC50 means the concentration that produces a half-maximal response. The low end stands for a more potent agent, the high end for a less potent agent. For orientation: IC50 means the point on the concentration scale where inhibition reaches its midpoint. A higher IC50 goes with weaker potency in that assay.

Test [1] addresses T1, human CXCL13 (human, UniProt O43927 23-109).
T1 construct: also called huCXCL13; rhCXCL13
T1 sequence (looked up): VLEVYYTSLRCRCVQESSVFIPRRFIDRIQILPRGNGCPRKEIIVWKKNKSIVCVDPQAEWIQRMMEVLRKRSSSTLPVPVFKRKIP
The test is described as follows: ELISA, coated antigen, chimeric IgG1. How it is done: (§1) Elisa based binding assay. […] Briefly, 100 μl of human CXCL13 or cynomolgus CXCL13 was coated at 0.5 μg/ml overnight and then blocked by 200 μl of 5% BSA in PBS. Serial diluted antibodies were incubated with the coated antigen for 30 min at RT. The resulting plates were washed with PBS/T and incubated with goat anti-human IgG Fc-HRP for 30 min RT. The plates were developed with TMB substrate after washing with 1×PBST for 5 times and reaction stopped with 1N HCl and analyzed by spectrophotometer at OD 450-630 nm.

In a further test the target is T2, cynomolgus CXCL13 (cynomolgus, UniProt H6WS58 23-109).
T2 construct: also called cynoCXCL13; Cyno CXCL13
T2 sequence: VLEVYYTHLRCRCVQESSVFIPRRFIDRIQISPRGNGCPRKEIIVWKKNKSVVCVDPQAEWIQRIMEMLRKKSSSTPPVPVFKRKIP
The test is described as follows: ELISA, coated antigen, chimeric IgG1. How it is done:
as §1

For test [2], the target named is T1, human CXCL13. Put plainly: cell-based blocking ELISA, CXCL13 to CHO-K1-CXCR5. The procedure: This example tested the blocking of the anti-CXCL13 chimeric antibodies to CHO-K1-CXCR5 cells. Briefly, 5×10⁴ CHO-K1-CXCR5 cells were plated in 96-well plate with 100 μl of culture medium and incubated at 37° C. overnight. Cells were fixed with 100 μl of 2% PFA at RT for 1 hr after washing with PBS for 1 time. Samples were blocked with 1% BSA in PBST for 1 hr at RT. Antibodies were serial diluted from 50 μg/ml by 3-fold with 1% BSA/PBST and pre-incubated with equal volume of 0.3 μg/ml human CXCL13 for 30 min at RT. 100 μl of antibody-antigen complex was transferred into each cell wells for 30 min at RT. Samples were washed with 1×PBST for 3 times and 100 μl of 3 μg/ml of human Mab5261 antibody was added into each well to capture human CXCL13 and anti-human Fc-HRP was used to indirectly detect human CXCL13 when it bound to CHO-K1-CXCR5 cells.
Then read at 450 nm. […] Among all clones, 415A3D1, 64C10G1, 1H3A11, 414D10F5, 411A11E9, 21H12D9, 71F4A3, 329F2E1 show completely blocking activity and 408E3F3, 19H7E10, 339A6E7 appeared to be partial blockers.

B1: 414D10F5 chimeric human IgG1 antibody (antibody, V domains shown)
VH: EVQLAESGGGLVQPGRSLKLSCSASGFTFSDYYMAWFRQAPPKGLEWVASISYDGGDSFYRDSVKGRFTISRDNAKSSLYLQMDSLRSEDTATYYCTTEEDYSGSFPDYWGQGVMVTVSS
VL: DIQMTQSPSFLSASVGDRVTINCKASQNINKYLNWYQQKLGEAPKRLIYDTNNLQAGIPSRFSGSGSGTDYTLTINSLQPEDFATYFCLQHNSLYTFGGGTKLELK
notes: Chimeric human IgG1
Take B1: the concentration giving a half-maximal response (EC50) in the test with human CXCL13 [1] came out at 0.0628 µg/mL; with cynomolgus CXCL13, 1.19 µg/mL. Besides, inhibition with human CXCL13 [2] was half-maximal at 1.26 µg/mL (IC50).

B2: 411A11E9 chimeric human IgG1 antibody (antibody, V domains shown)
VH: EVQLVESGGGLVQPGGSLKLSCVVSGFTFSDYYMAWVRQTPTKGLEWVASINYDGGDTYYRDSVKGRFTVSRNNAKSSLFLQMDSLRSEDTATYYCKTEEDYDGSYVMDAWGQGASVIVSS
VL: DIQMTQSPSFLSASVGDRVTISCKASQNINKELTWYQQKLGKAPKRLIYNTNILQTGIPSRFSGSGSNTDYTLTISSLQPEDFATYFCLQQSSLYTFGAGTKLELK
notes: Chimeric human IgG1
For the molecule B2, the EC50 in the test with human CXCL13 [1] came out at 0.0485 µg/mL; with cynomolgus CXCL13, 0.1 µg/mL. Also, in the test with human CXCL13 [2], the IC50 was 1.71 µg/mL.

B3: 1H3A11 chimeric human IgG1 antibody (antibody, V domains shown)
VH: EVQLVESGGGLVKPGGSLKLSCAASGFTFSSYAMSWVRQTPEKRLEWVATISDGGSDTYYPDNVKGRFTISRDNAKNNLYLQMSHLKSEDTAMYYCARDYYGSSYEDYAMDYWGQGTSVTVSS
VL: DIQMTQSPSSLSASLGGKVTITCKASQDINKYITWYQHKPGKGPRLLIHYTSTLQPGIPSRFSGSGSGRDYSFSISNLEPEDIATYYCLQYDNLYTFGGGTKLEIK
notes: Chimeric human IgG1
For the molecule B3, the EC50 in the test with human CXCL13 [1] was found to be 0.0553 µg/mL; with cynomolgus CXCL13, 0.144 µg/mL. In the test with human CXCL13 [2], this molecule returned an IC50 of 1.19 µg/mL.

B4: 415A3D1 chimeric human IgG1 antibody (antibody, V domains shown)
VH: EVKLLESGGGLVQAGGSMRLSCGAFGFTVTDFYINWIRQPAGKAPEWLGFMRNKANGYTTEYNPSVKGRFTISRNNTQNMPYLQMNTLRTEDTAIYYCARSRYNADDYYVGVMDVWGQGASVTVSS
VL: DIQMTQFPASLSASLGETVSIECLASEDIYNNLAWYQQKPGKSPQLLIYYTNSLQDGVPSRFSGTGSGTQYSLKINSLESEDAATYFCLQDSEYPWTFGGGTKLKLK
notes: Chimeric human IgG1; label 415A3D1 read as clone 415A3D1F4
With B4, the EC50 with human CXCL13 [1] stood at 0.0729 µg/mL; with cynomolgus CXCL13, 0.0469 µg/mL. In addition, the IC50 with human CXCL13 [2] is 0.985 µg/mL.

B5: 21H12D9 chimeric human IgG1 antibody (antibody, V domains shown)
VH: EVQLQQSGPVLVRPGASVKMSCKASGYTFTDYYMNWVKQSHGKSLEWIGVINPNNGGTTYKEKFKGKATLTVDKSSGTAYMELNSLTSEDSAVYYCARDDYDAGYWGQGTTLTVSS
VL: DIVMTQFQKFMSTTVGDRVSITCKASQNVDTAVAWYQHKPGQSPKLLIYSASHRYTGVPDRFTGSGSGTDFTLTISNVQSEDLADYFCQQYTDFPLTFGAGTKLELK
notes: Chimeric human IgG1
Turning to B5, the EC50 in the test with human CXCL13 [1] was found to be 0.0536 µg/mL; with cynomolgus CXCL13, 0.0488 µg/mL. The molecule also gave a 50% inhibitory concentration (IC50) with human CXCL13 [2] of 1.89 µg/mL.

B6: 329F2E1 chimeric human IgG1 antibody (antibody, V domains shown)
VH: EVKLLQSGGGLVQPGGSLKLSCAASGIDFSRYWMSWVRRAPGKGLEWIGEINPDSSTINYAPSLKDKFIISRDNAKNTLYLQMSKVRSEDTALYYCARQDDYDYYAMDYWGQGTSVTVSS
VL: DIVMTQSHKFMSTSVGDRVSITCKASQDVSTGVAWYQQKPGQSPKLLIYSASYRYTGVPDRFTGSGSRTDFTFTISSVQTEDPAVYYCHQYYTIPLTFGAGTELELK
notes: Chimeric human IgG1
With B6, the EC50 came out at 0.0511 µg/mL with human CXCL13 [1] and 0.0416 µg/mL in the test with cynomolgus CXCL13. The same molecule displayed an IC50 in the test with human CXCL13 [2] of 3.55 µg/mL.
